# Non-standard residues stand in square brackets, D forms with d. No end group written: not given here. *: point of attachment. X11 = ((1S)-1-carboxy-3-methylbutyl)carbamoyl, CC(C)C[C@H](NC(=O)*)C(=O)O; Phe(4-Me) = Cc1ccc(C[C@H](N)C(=O)O)cc1; 1Nal = N[C@@H](Cc1cccc2ccccc12)C(=O)O; 2Nal = N[C@@H](Cc1ccc2ccccc2c1)C(=O)O; NMeF = CN[C@@H](Cc1ccccc1)C(=O)O; Cha = N[C@@H](CC1CCCCC1)C(=O)O; Cit = NC(=O)NCCC[C@H](N)C(=O)O; dIva = CC[C@@](C)(N)C(=O)O; 4Amb = NCc1ccc(C(=O)O)cc1; hSer = N[C@@H](CCO)C(=O)O; Iva = CC[C@](C)(N)C(=O)O; Ac3c = NC1(C(=O)O)CC1; Aib = CC(C)(N)C(=O)O
# T1: human Y2 receptor (human, UniProt P49146 1-381)
# T1 sequence (looked up): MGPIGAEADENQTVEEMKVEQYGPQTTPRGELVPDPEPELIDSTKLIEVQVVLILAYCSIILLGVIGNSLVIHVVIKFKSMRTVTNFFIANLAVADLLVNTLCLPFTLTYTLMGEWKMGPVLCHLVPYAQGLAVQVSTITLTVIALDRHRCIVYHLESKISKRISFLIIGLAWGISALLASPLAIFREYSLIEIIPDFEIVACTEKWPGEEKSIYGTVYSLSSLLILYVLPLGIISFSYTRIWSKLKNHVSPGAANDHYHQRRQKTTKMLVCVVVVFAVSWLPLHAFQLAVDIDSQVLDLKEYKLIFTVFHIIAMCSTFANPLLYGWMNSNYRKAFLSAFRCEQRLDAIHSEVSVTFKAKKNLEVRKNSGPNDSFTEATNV
# B1: 4-Aminomethylbenzoyl-[Ala26, Ile28,31, Nal(2)36]-PYY(25-36) (peptide)
# peptide: [4Amb]RAYINLITRQR[2Nal]-NH2
# modifications: N-terminus assumed
# SMILES: CC[C@H](C)[C@H](NC(=O)[C@H](Cc1ccc(O)cc1)NC(=O)[C@H](C)NC(=O)[C@H](CCCNC(=N)N)NC(=O)c1ccc(CN)cc1)C(=O)N[C@@H](CC(N)=O)C(=O)N[C@@H](CC(C)C)C(=O)N[C@H](C(=O)N[C@H](C(=O)N[C@@H](CCCNC(=N)N)C(=O)N[C@@H](CCC(N)=O)C(=O)N[C@@H](CCCNC(=N)N)C(=O)N[C@@H](Cc1ccc2ccccc2c1)C(N)=O)[C@@H](C)O)[C@@H](C)CC
# notes: also called compound No. 14
# B2: 4-Aminomethylbenzoyl-[Ala26, Ile28,31, Nal(1)36]-PYY(25-36) (peptide)
# peptide: [4Amb]RAYINLITRQR[1Nal]-NH2
# modifications: N-terminus assumed
# SMILES: CC[C@H](C)[C@H](NC(=O)[C@H](Cc1ccc(O)cc1)NC(=O)[C@H](C)NC(=O)[C@H](CCCNC(=N)N)NC(=O)c1ccc(CN)cc1)C(=O)N[C@@H](CC(N)=O)C(=O)N[C@@H](CC(C)C)C(=O)N[C@H](C(=O)N[C@H](C(=O)N[C@@H](CCCNC(=N)N)C(=O)N[C@@H](CCC(N)=O)C(=O)N[C@@H](CCCNC(=N)N)C(=O)N[C@@H](Cc1cccc2ccccc12)C(N)=O)[C@@H](C)O)[C@@H](C)CC
# notes: also called compound No. 13
# B3: Ac-[D-Pro24, Cit27, Cha28,36, Aib31]-PYY(23-36) (peptide)
# peptide: Ac-S[dP]RH[Cit][Cha]NL[Aib]TRQR[Cha]-NH2
# SMILES: CC(=O)N[C@@H](CO)C(=O)N1CCC[C@@H]1C(=O)N[C@@H](CCCNC(=N)N)C(=O)N[C@@H](Cc1c[nH]cn1)C(=O)N[C@@H](CCCNC(N)=O)C(=O)N[C@@H](CC1CCCCC1)C(=O)N[C@@H](CC(N)=O)C(=O)N[C@@H](CC(C)C)C(=O)NC(C)(C)C(=O)N[C@H](C(=O)N[C@@H](CCCNC(=N)N)C(=O)N[C@@H](CCC(N)=O)C(=O)N[C@@H](CCCNC(=N)N)C(=O)N[C@@H](CC1CCCCC1)C(N)=O)[C@@H](C)O
# notes: also called compound No. 146
# B4: Ac-[D-Pro24, Cha27,36, Hse28, Aib31]-PYY(23-36) (peptide)
# peptide: Ac-S[dP]RH[Cha][hSer]NL[Aib]TRQR[Cha]-NH2
# SMILES: CC(=O)N[C@@H](CO)C(=O)N1CCC[C@@H]1C(=O)N[C@@H](CCCNC(=N)N)C(=O)N[C@@H](Cc1c[nH]cn1)C(=O)N[C@@H](CC1CCCCC1)C(=O)N[C@@H](CCO)C(=O)N[C@@H](CC(N)=O)C(=O)N[C@@H](CC(C)C)C(=O)NC(C)(C)C(=O)N[C@H](C(=O)N[C@@H](CCCNC(=N)N)C(=O)N[C@@H](CCC(N)=O)C(=O)N[C@@H](CCCNC(=N)N)C(=O)N[C@@H](CC1CCCCC1)C(N)=O)[C@@H](C)O
# notes: also called compound No. 144
# B5: Ac-[D-Pro24, Cha27,28, Aib31]-PYY(23-36) (peptide)
# peptide: Ac-S[dP]RH[Cha][Cha]NL[Aib]TRQRY-NH2
# SMILES: CC(=O)N[C@@H](CO)C(=O)N1CCC[C@@H]1C(=O)N[C@@H](CCCNC(=N)N)C(=O)N[C@@H](Cc1c[nH]cn1)C(=O)N[C@@H](CC1CCCCC1)C(=O)N[C@@H](CC1CCCCC1)C(=O)N[C@@H](CC(N)=O)C(=O)N[C@@H](CC(C)C)C(=O)NC(C)(C)C(=O)N[C@H](C(=O)N[C@@H](CCCNC(=N)N)C(=O)N[C@@H](CCC(N)=O)C(=O)N[C@@H](CCCNC(=N)N)C(=O)N[C@@H](Cc1ccc(O)cc1)C(N)=O)[C@@H](C)O
# notes: also called compound No. 142
# B6: Ac-[D-Pro24, Cha27,28, Aib31, Phe36]-PYY(23-36) (peptide)
# peptide: Ac-S[dP]RH[Cha][Cha]NL[Aib]TRQRF-NH2
# SMILES: CC(=O)N[C@@H](CO)C(=O)N1CCC[C@@H]1C(=O)N[C@@H](CCCNC(=N)N)C(=O)N[C@@H](Cc1c[nH]cn1)C(=O)N[C@@H](CC1CCCCC1)C(=O)N[C@@H](CC1CCCCC1)C(=O)N[C@@H](CC(N)=O)C(=O)N[C@@H](CC(C)C)C(=O)NC(C)(C)C(=O)N[C@H](C(=O)N[C@@H](CCCNC(=N)N)C(=O)N[C@@H](CCC(N)=O)C(=O)N[C@@H](CCCNC(=N)N)C(=O)N[C@@H](Cc1ccccc1)C(N)=O)[C@@H](C)O
# notes: also called compound No. 143
# B7: Ac-[D-Pro24, Iva27, Cha28,36, Aib31]-PYY(23-36) (peptide)
# peptide: Ac-S[dP]RH[Iva][Cha]NL[Aib]TRQR[Cha]-NH2
# SMILES: CC[C@](C)(NC(=O)[C@H](Cc1c[nH]cn1)NC(=O)[C@H](CCCNC(=N)N)NC(=O)[C@H]1CCCN1C(=O)[C@H](CO)NC(C)=O)C(=O)N[C@@H](CC1CCCCC1)C(=O)N[C@@H](CC(N)=O)C(=O)N[C@@H](CC(C)C)C(=O)NC(C)(C)C(=O)N[C@H](C(=O)N[C@@H](CCCNC(=N)N)C(=O)N[C@@H](CCC(N)=O)C(=O)N[C@@H](CCCNC(=N)N)C(=O)N[C@@H](CC1CCCCC1)C(N)=O)[C@@H](C)O
# notes: also called compound No. 175
# B8: Ac-[Arg20, D-Tyr21, D-Pro24, Cha27,28,36, Aib31]-PYY(20-36) (peptide)
# peptide: Ac-R[dY]AS[dP]RH[Cha][Cha]NL[Aib]TRQR[Cha]-NH2
# SMILES: CC(=O)N[C@@H](CCCNC(=N)N)C(=O)N[C@H](Cc1ccc(O)cc1)C(=O)N[C@@H](C)C(=O)N[C@@H](CO)C(=O)N1CCC[C@@H]1C(=O)N[C@@H](CCCNC(=N)N)C(=O)N[C@@H](Cc1c[nH]cn1)C(=O)N[C@@H](CC1CCCCC1)C(=O)N[C@@H](CC1CCCCC1)C(=O)N[C@@H](CC(N)=O)C(=O)N[C@@H](CC(C)C)C(=O)NC(C)(C)C(=O)N[C@H](C(=O)N[C@@H](CCCNC(=N)N)C(=O)N[C@@H](CCC(N)=O)C(=O)N[C@@H](CCCNC(=N)N)C(=O)N[C@@H](CC1CCCCC1)C(N)=O)[C@@H](C)O
# notes: also called compound No. 164
# B9: 4-Aminomethylbenzoyl-[Ala26, Ile28,31, Phe(4Me)36]-PYY(25-36) (peptide)
# peptide: [4Amb]RAYINLITRQR[Phe(4-Me)]-NH2
# modifications: N-terminus assumed
# SMILES: CC[C@H](C)[C@H](NC(=O)[C@H](Cc1ccc(O)cc1)NC(=O)[C@H](C)NC(=O)[C@H](CCCNC(=N)N)NC(=O)c1ccc(CN)cc1)C(=O)N[C@@H](CC(N)=O)C(=O)N[C@@H](CC(C)C)C(=O)N[C@H](C(=O)N[C@H](C(=O)N[C@@H](CCCNC(=N)N)C(=O)N[C@@H](CCC(N)=O)C(=O)N[C@@H](CCCNC(=N)N)C(=O)N[C@@H](Cc1ccc(C)cc1)C(N)=O)[C@@H](C)O)[C@@H](C)CC
# notes: also called compound No. 15
# B10: [(1S)-1-carboxy-3-methylbutyl]carbamoyl-[D-Pro24, Cha27,28,36, Aib31]-PYY(23-36) (peptide)
# peptide: X11-S[dP]RH[Cha][Cha]NL[Aib]TRQR[Cha]-NH2
# SMILES: CC(C)C[C@H](NC(=O)N[C@@H](CO)C(=O)N1CCC[C@@H]1C(=O)N[C@@H](CCCNC(=N)N)C(=O)N[C@@H](Cc1c[nH]cn1)C(=O)N[C@@H](CC1CCCCC1)C(=O)N[C@@H](CC1CCCCC1)C(=O)N[C@@H](CC(N)=O)C(=O)N[C@@H](CC(C)C)C(=O)NC(C)(C)C(=O)N[C@H](C(=O)N[C@@H](CCCNC(=N)N)C(=O)N[C@@H](CCC(N)=O)C(=O)N[C@@H](CCCNC(=N)N)C(=O)N[C@@H](CC1CCCCC1)C(N)=O)[C@@H](C)O)C(=O)O
# notes: also called compound No. 184
# B11: Ac-[D-Pro24, Cha27,36, Acpc28, Aib31]-PYY(23-36) (peptide)
# peptide: Ac-S[dP]RH[Cha][Ac3c]NL[Aib]TRQR[Cha]-NH2
# SMILES: CC(=O)N[C@@H](CO)C(=O)N1CCC[C@@H]1C(=O)N[C@@H](CCCNC(=N)N)C(=O)N[C@@H](Cc1c[nH]cn1)C(=O)N[C@@H](CC1CCCCC1)C(=O)NC1(C(=O)N[C@@H](CC(N)=O)C(=O)N[C@@H](CC(C)C)C(=O)NC(C)(C)C(=O)N[C@H](C(=O)N[C@@H](CCCNC(=N)N)C(=O)N[C@@H](CCC(N)=O)C(=O)N[C@@H](CCCNC(=N)N)C(=O)N[C@@H](CC2CCCCC2)C(N)=O)[C@@H](C)O)CC1
# notes: also called compound No. 145
# B12: Ac-[D-Pro24, D-Iva27, Cha28,36, Aib31]-PYY(23-36) (peptide)
# peptide: Ac-S[dP]RH[dIva][Cha]NL[Aib]TRQR[Cha]-NH2
# SMILES: CC[C@@](C)(NC(=O)[C@H](Cc1c[nH]cn1)NC(=O)[C@H](CCCNC(=N)N)NC(=O)[C@H]1CCCN1C(=O)[C@H](CO)NC(C)=O)C(=O)N[C@@H](CC1CCCCC1)C(=O)N[C@@H](CC(N)=O)C(=O)N[C@@H](CC(C)C)C(=O)NC(C)(C)C(=O)N[C@H](C(=O)N[C@@H](CCCNC(=N)N)C(=O)N[C@@H](CCC(N)=O)C(=O)N[C@@H](CCCNC(=N)N)C(=O)N[C@@H](CC1CCCCC1)C(N)=O)[C@@H](C)O
# notes: also called compound No. 180
# B13: 4-Aminomethylbenzoyl-[Ala26, Ile28,31, NMePhe36]-PYY(25-36) (peptide)
# peptide: [4Amb]RAYINLITRQR[NMeF]-NH2
# modifications: N-terminus assumed
# SMILES: CC[C@H](C)[C@H](NC(=O)[C@H](Cc1ccc(O)cc1)NC(=O)[C@H](C)NC(=O)[C@H](CCCNC(=N)N)NC(=O)c1ccc(CN)cc1)C(=O)N[C@@H](CC(N)=O)C(=O)N[C@@H](CC(C)C)C(=O)N[C@H](C(=O)N[C@H](C(=O)N[C@@H](CCCNC(=N)N)C(=O)N[C@@H](CCC(N)=O)C(=O)N[C@@H](CCCNC(=N)N)C(=O)N(C)[C@@H](Cc1ccccc1)C(N)=O)[C@@H](C)O)[C@@H](C)CC
# notes: also called compound No. 16
# Target: T1, human Y2 receptor
# Experiment: cell-based or functional assay
row,"GBA EC50 Ratio (vs PYY(3-36)), [35S]GTPγS",Binder
1,6.9 ratio,B1
2,3.6 ratio,B2
3,5.6 ratio,B3
4,4.5 ratio,B4
5,1.1 ratio,B5
6,0.85 ratio,B6
7,2.6 ratio,B7
8,0.66 ratio,B8
9,5.5 ratio,B9
10,2.9 ratio,B10
11,17 ratio,B11
12,6 ratio,B12
13,45 ratio,B13

# Target: T1, human Y2 receptor
# Experiment: RBA: [125I]-PYY displacement, hY2R/CHO membranes
# Outline: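 Bound radioligand was collected by filtration on PEI-treated GF/C filters, washed with Tris/MgCl₂/NaCl/CHAPS buffer pH 7.4, and counted by scintillation; IC₅₀ values were calculated.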
row,IC50 Ratio (vs PYY(3-36)),Binder
1,14 ratio,B1
2,7.6 ratio,B2
3,36 ratio,B3
4,22 ratio,B4
5,3.2 ratio,B5
6,2.9 ratio,B6
7,6.4 ratio,B7
8,0.44 ratio,B8
9,8.7 ratio,B9
10,1.5 ratio,B10
11,160 ratio,B11
12,8.1 ratio,B12
13,120 ratio,B13
